T1: NFKB2 (p52) homodimer (UniProt Q00653 Q00653:1-454)
T1 sequence: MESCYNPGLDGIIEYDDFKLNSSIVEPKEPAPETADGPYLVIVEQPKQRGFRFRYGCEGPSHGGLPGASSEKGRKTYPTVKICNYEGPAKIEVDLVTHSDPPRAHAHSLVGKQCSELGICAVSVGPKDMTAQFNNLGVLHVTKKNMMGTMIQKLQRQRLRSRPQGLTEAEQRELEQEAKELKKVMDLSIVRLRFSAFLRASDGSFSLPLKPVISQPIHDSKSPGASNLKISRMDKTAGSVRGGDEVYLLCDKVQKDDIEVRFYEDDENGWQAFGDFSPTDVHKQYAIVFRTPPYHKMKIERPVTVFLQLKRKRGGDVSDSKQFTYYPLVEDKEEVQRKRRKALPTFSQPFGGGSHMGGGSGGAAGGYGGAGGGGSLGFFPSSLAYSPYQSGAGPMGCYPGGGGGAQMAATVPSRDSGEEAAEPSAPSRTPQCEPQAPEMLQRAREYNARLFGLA

B1: P-selectin 4642-4664 (dsDNA)
DNA 1: GGAAGGGGGTGACCCCTTGCCTC
DNA 2: GAGGCAAGGGGTCACCCCCTTCC
B2: P-selectin 4642-4664 ATAG mutant (dsDNA)
DNA 1: GGAAGGGGGTGAATAGTTGCCTC
DNA 2: GAGGCAACTATTCACCCCCTTCC
modifications: [none]
B3: P-selectin 4632-4672 (dsDNA)
DNA 1: CATCTTCCATGGAAGGGGGTGACCCCTTGCCTCTTGGCAAC
DNA 2: GTTGCCAAGAGGCAAGGGGTCACCCCCTTCCATGGAAGATG

Assays:
[1] = target: T1, NFKB2 (p52) homodimer; experiment: EMSA; methylation interference shows contacts to GGGG on both strands; conditions: chain copies: 2 (stated); label: 32P
[2] = target: T2, NFKB1 (p50) homodimer (UniProt P19838 P19838:1-433); experiment: as above; conditions: chain copies: 2 (stated); label: 32P
T2 sequence (P19838 1-433, one chain of several): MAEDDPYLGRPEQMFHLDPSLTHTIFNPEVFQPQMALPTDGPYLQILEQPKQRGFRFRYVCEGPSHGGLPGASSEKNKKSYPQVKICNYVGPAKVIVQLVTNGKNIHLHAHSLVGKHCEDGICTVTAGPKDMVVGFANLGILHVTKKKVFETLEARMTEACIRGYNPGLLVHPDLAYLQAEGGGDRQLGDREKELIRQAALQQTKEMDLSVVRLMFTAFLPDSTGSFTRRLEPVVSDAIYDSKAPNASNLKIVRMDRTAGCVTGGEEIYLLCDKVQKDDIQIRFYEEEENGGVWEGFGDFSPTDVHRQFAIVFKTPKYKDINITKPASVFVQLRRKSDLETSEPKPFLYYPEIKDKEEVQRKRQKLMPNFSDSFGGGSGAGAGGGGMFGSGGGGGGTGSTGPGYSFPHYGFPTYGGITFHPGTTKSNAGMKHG

[3] = target: Rel A homodimer (UniProt Q04206 Q04206:1-551); experiment: EMSA; conditions: chain copies: 2 (stated); label: 32P
Chain of Rel A homodimer (Q04206 whole entry, one chain of several): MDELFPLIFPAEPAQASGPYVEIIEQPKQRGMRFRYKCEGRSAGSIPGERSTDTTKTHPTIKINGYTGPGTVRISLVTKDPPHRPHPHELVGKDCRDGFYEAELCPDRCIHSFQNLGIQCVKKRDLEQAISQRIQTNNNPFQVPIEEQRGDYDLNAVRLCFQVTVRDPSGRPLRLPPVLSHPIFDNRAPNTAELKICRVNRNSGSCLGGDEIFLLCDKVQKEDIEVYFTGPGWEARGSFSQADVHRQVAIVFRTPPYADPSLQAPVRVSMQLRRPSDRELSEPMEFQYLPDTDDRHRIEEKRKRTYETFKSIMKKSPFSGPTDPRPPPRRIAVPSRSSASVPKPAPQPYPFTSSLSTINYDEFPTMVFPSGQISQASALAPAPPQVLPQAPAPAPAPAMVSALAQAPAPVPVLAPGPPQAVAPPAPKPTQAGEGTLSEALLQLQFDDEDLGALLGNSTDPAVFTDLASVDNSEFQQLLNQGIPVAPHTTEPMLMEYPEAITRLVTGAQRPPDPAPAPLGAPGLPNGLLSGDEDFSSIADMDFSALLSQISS

[4] = target: T1, NFKB2 (p52) homodimer; experiment: EMSA; conditions: chain copies: 2 (stated)
[5] = target: T2, NFKB1 (p50) homodimer; experiment: EMSA; conditions: chain copies: 2 (stated)
[6] = target: T1, NFKB2 (p52) homodimer; experiment: EMSA; labeled oligonucleotides bound; conditions: chain copies: 2 (stated); label: 32P
[7] = target: T2, NFKB1 (p50) homodimer; experiment: EMSA; labeled oligonucleotides bound; conditions: chain copies: 2 (stated); label: 32P

Row | Binder | binding result [1] | binding result [2] | binding result [3] | binding result [4] | binding result [5] | binding result [6] | binding result [7]
1 | B1 | binds | binds | no binding |  |  |  | 
2 | B2 |  |  |  | no binding | no binding |  | 
3 | B3 |  |  | no binding |  |  | binds | binds

Reference: patent US5605821, “Expression control sequences of the P-selectin gene” (Board of Regents of the University of Oklahoma)
